Values quoted from earlier work, collected in publication PMC12071684.

Biological target: von Willebrand factor (Homo sapiens) (UniProt P04275)

Kd: 20 nM
Substance: ADAMTS13 (from UniProt Q76LX8)
